The results in this text go back to patent US20250197490A1 (HBM ALPHA THERAPEUTICS, published 2025).

T1: corticotropin-releasing hormone (CRH) peptide (human and mouse, UniProt P01143 145-185 (rat entry), not fully specified)
T1 peptide: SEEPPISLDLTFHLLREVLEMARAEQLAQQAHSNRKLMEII

T2: biotinylated CRH (human and mouse, UniProt P01143 145-185 (rat entry), not fully specified; biotin; which end is not stated for the result (NT-biotin and CT-biotin forms were used))
T2 construct: also called biotin-CRH; CRH (NT biotin)
T2 peptide: T1 peptide

T3: human UCN1 peptide, biotinylated (human, UniProt P55089 83-122, biotin at N- or C-terminus)
T3 construct: also called hUCN1 (NT Biotin); hUCN1 (CT Biotin)
T3 peptide (looked up): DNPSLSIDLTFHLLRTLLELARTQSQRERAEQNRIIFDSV

T4: N-Terminal CRH peptide (N-terminal region plus central region, CT biotin) (human and mouse, C-terminal K-Biotin)
T4 construct: also called N-Ter-CRH
T4 peptide: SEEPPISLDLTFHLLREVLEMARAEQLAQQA

T5: human UCN2 peptide, biotinylated (human, UniProt Q96RP3 72-109, limits assumed, biotin at N- or C-terminus)
T5 construct: also called hUCN2 (NT Biotin); hUCN2 (CT Biotin)
T5 peptide (looked up): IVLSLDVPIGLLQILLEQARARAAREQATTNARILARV

T6: human UCN3 peptide, biotinylated (human, UniProt Q969E3 120-157, biotin at N- or C-terminus)
T6 construct: also called hUCN3 (NT Biotin); hUCN3 (CT Biotin)
T6 peptide (looked up): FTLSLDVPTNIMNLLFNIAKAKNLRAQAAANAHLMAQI

T7: CRH (Central Region, NT Biotin) (N-terminal Biotin-K; C-terminal NH2)
T7 construct: also called Central CRH
T7 peptide: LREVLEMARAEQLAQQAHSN

T8: CRH (Central Region, CT Biotin) (C-terminal K-Biotin)
T8 construct: also called Central CRH
T8 peptide: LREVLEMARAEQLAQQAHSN

T9: CRH (C-Terminal Region, NT Biotin) (N-terminal Biotin-K; C-terminal NH2)
T9 construct: central region plus C-terminal region of CRH; also called C-Terminal CRH; C-Ter-CRH
T9 peptide: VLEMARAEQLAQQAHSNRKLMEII

B1: PR302064 (antibody, human IgG1, kappa, V domains shown)
VH: EMQLVESGGGLVKPGGSLRLSCAASGFTFSNYWMNWVRQAPGKGLEWVAEIRLKSNNYATHYAESVKGRFTISRDDSKSTVYLQMNSLKTEDTAVYYCTVGTLVYWGQGTLVTVSS
VL: DIVLTQSPDSLAVSLGERATINCRASQSVSTSTYNYMHWFQQKPGQPPKLLIKFASNLESGVPDRFSGSGSGTDFTLTISSLQAEDTAVYYCQHSWEIPYTFGQGTKLEIKR
B2: PR302309-11 (antibody, human IgG1, kappa, V domains shown)
VH: QIQLVQSGSELKKPGASVKVSCKASGYTFTNYGMNWVRQAPGQGLEWMGWINTYTGEPIYTDDFKGRFVFSLDTSVSTAYLQISSLKAEDTAVYYCSRSTMITTGGVFAYWGQGTLVTVSS
VL: DIVMTQTPLSSPVTLGQPASISCRSSQTIVHSDGNTYLEWLQQRPGQPPRLLIYKVSNRFSGVPDRFSGSGAGTDFTLKISRVEAEDVGVYYCFQGSHVPWTFGGGTKVEIKR
B3: PR302309-18 (antibody, human IgG1, kappa, V domains shown)
VH: QVQLVQSGAEVKKPGASVKVSCKASGYTFTNYGMNWVRQAPGQRLEWMGWINTYTGEPIYTDDFKGRVTITRDTSASTAYMELSSLRSEDTAVYYCARSTMITTGGVFAYWGQGTLVTVSS
VL: B2 VL with I2V, T7S, S11L, L41Y, P48S, A72S, V88L
B4: PR301790 (antibody, human IgG1, kappa, V domains shown)
VH: EMKLEESGGGLVQPGGSMKLSCVASGFTFSNYWMNWVRQSPEKGLEWVAEIRLKSNNYATHYAESVKGRFTISRDDSKSSVYLQMNNLRAEDTGIYYCTIGTLVYWGQGTLVTVSA
VL: DIVLTQSPASLAVSLGQRATISCRASQSVSTSSYNYMHWYQQKPGQPPKLLIKFASNLESGVPARFSGSGSGTDFTLNIHPVEEEDTATFYCQHSWEIPYTFGGGTKLEIKR
B5: PR301803 (antibody, human IgG1, kappa, V domains shown)
VH: B4 VH with M2V, S30N, V66L, I100V
VL: B4 VL with A12V, S33T
B6: PR302341-34 (antibody, human IgG1, kappa, V domains shown)
VH: QVQLVQSGAEVKKPGASVKVSCKASGYTFTDYFMKWVRQAPGQGLEWMGVINPNQGDIFYNQKFKGRVTMTVDKSISTAYMELSRLRSDDTAVYYCARGTDRALFAYWGQGTLVTVSS
VL: DVVMTQSPLSLPVTLGQPASISCRSGQSIVHSDANTYLEWYQQRPGQSPRLLIYKVSNRFSGVPDRFSGSGSGTDFTLKISRVEAEDLGVYYCFQGSHIPWTFGGGTKVEIKR
B7: PR302341-48 (antibody, human IgG1, kappa, V domains shown)
VH: B6 VH with I76T, R85S, D89E
VL: B6 VL with S7T, L11S, S48P, S72A
B8: PR302341-60 (antibody, human IgG1, kappa, V domains shown)
VH: B6 VH with G44R, M70I, V72R, K74T, I76A, R85S, D89E
VL: B6 VL
B9: PR302341-28 (antibody, human IgG1, kappa, V domains shown)
VH: B6 VH
VL: B6 VL with A34G
B10: PR302341-55 (antibody, human IgG1, kappa, V domains shown)
VH: B6 VH with G44R, Q55N, G56A, M70I, V72R, K74T, I76A, R85S, D89E
VL: B6 VL with A34G

Residue numbers refer to the chain shown, from its start.

In the first test the target is T1, corticotropin-releasing hormone (CRH) …. In words: cell-based or functional assay.
For B1, the “unlabelled nM value (Table 5 matrix; likely hCRHR1-Luc IC50 as in Tables 6-8)” value was determined as 0.531 nM.

For a further test the target is unchanged. In words: cell-based or functional assay. This is another data set of the same source.
As for B2, the “hCRHR1-Luc 0.5 nM CRH IC50” value is 2.12 nM.
Still for that read-out and setting: the same measure for B3: 1.73 nM.

The target of another test is T2, biotinylated CRH. The test can be described thus: ELISA, CRH (NT biotin).
Take B4: the binding result is reported as “binds”.
For the molecule B5, the binding result was “binds”.

Another test concerns the target T2, biotinylated CRH. In words: ELISA, CRH (NT biotin). This is another data set of the same source. The protocol:
(§1) Streptavidin (Thermo, Cat: 21125) was diluted in PBS to a concentration of 2 μg/ml. 100 μl of diluted streptavidin was added per well to ELISA microplates, and the plates were incubated overnight at 4° C. […] Subsequently, plates were washed and incubated with HRP-conjugated goat anti-human IgG (H+L) antibody (Jackson, Cat: 109-035-088) at 37° C. for 1 hour. 100 μL of 3,3′,5,5′-tetramethylbenzidine (TMB) substrate (Biopanda, Cat: TMB-S-003) was added, and the plates were incubated at room temperature for 15 minutes. 100 μL of ELISA stopping solution (Solarbio, Cat #: C1058) was added to terminate the reaction, and the optical density at 450 nm (OD450 nm) was determined by an ELISA plate reader (Molecular Devices, Spectra max 384 plus).
For orientation: EC50 (read off the curve) means the midpoint of the concentration-response curve. Read a low EC50 (read off the curve) as greater potency. On to B2, for which the concentration giving a half-maximal response (EC50 (read off the curve)) is about 0.03 nM.
The same measure, in the same setting: the value for B3 was about 0.03 nM; that for B1 was about 0.03 nM; that for B6 was about 0.03 nM.

The next test has as its target T2, biotinylated CRH. In words: ELISA, CRH (CT biotin). As to the method:
as §1
As for B2, the “EC50 (read off the curve)” value was about 0.03 nM.
On the same count and under the same terms, the same measure for B3: about 0.03 nM; for B1: about 0.03 nM; for B6: about 0.03 nM.

The next test addresses T3, human UCN1 peptide, biotinylated. In words: ELISA, hUCN1 (NT biotin). The protocol: as §1
In general terms: An ELISA detects its analyte on a solid surface through an enzyme-linked reagent.
Regarding B2, the “EC50 (read off the curve)” value was about 0.07 nM.
The same measure, in the same setting: the value for B3 was about 0.1 nM.
Still for that read-out and setting: the value for B1 was about 0.1 nM; that for B6 was about 0.02 nM.

For a further test the target is unchanged. The test can be described thus: ELISA, hUCN1 (CT biotin). As to the method: as §1
With B2, the 50% effective concentration (EC50 (read off the curve)) is about 0.4 nM.
The same measure, in the same setting: the same measure for B1: about 0.2 nM.
Still for that read-out and setting: the value for B6 was about 0.03 nM.

Another test addresses T4, N-Terminal CRH peptide (N-terminal …). In words: ELISA, N-Ter-CRH (CT-biotin) on streptavidin. As to the method: as §1
What is called EC50 is the concentration that produces a half-maximal response. Take B2: the concentration giving a half-maximal response (EC50) was determined as 0.028 nM.
On the same count and under the same terms, the value for B3 was 0.028 nM; that for B1 was 0.022 nM.

A further test deals with T5, human UCN2 peptide, biotinylated. In words: ELISA, hUCN2 (NT biotin) and (CT biotin). The protocol: (§2) Streptavidin (Thermo, Cat: 21125) was diluted in PBS with a concentration of 2 μg/mL. 100 μL of diluted streptavidin was added per well to ELISA microplates, and the plates were incubated overnight at 4° C. Plates were blocked with ELISA blocking solution (containing 2% w/v BSA, 0.05% (v/v) Tween-20, pH 7.4 PBS buffer) at 37° C. for 1 hour, and then incubated with either 1 μg/mL hUCN1 (NT Biotin), hUCN1 (CT Biotin), hUCN2 (NT Biotin), hUCN2 (CT Biotin), hUCN3 (NT Biotin), or hUCN3 (CT Biotin) for 1 hour at 37° C. […] Plates were subsequently washed and incubated with HRP-conjugated goat anti-human IgG (H+L) antibody (Jackson, Cat: 109-035-088) at 37° C. for 1 hour. 100 μl of TMB Substrate (Biopanda, Cat: TMB-S-003) was added, and the plates were incubated at room temperature for 15 minutes. 100 μL of ELISA stopping solution (Solarbio, Cat #: C1058) was then added to terminate the reaction, and the OD450 nm was determined by an ELISA plate reader (Molecular Devices, Spectra max 384 plus).
For the molecule B2, the binding result is “no binding (tested: 100 nM)”.
Still for that read-out and setting: the same measure for B3: “no binding (tested: 100 nM)”; for B1: “no binding (tested: 100 nM)”.
The same measure, in the same setting: the value for B6 was “no binding (tested: 100 nM)”; that for B7 was “no binding (tested: 100 nM)”; that for B8 was “no binding (tested: 100 nM)”.
On the same count and under the same terms, the value for B9 was “no binding (tested: 100 nM)”; that for B10 was “no binding (tested: 100 nM)”.

Another test has as its target T6, human UCN3 peptide, biotinylated. The test can be described thus: ELISA, hUCN3 (NT biotin) and (CT biotin). The protocol: as §2
In the case of B2, the binding result is given as “no binding (tested: 100 nM)”.
The same measure, in the same setting: the same measure for B3: “no binding (tested: 100 nM)”.
On the same count and under the same terms, the same measure for B1: “no binding (tested: 100 nM)”.

The next test deals with T7, CRH (Central Region, NT Biotin). The test can be described thus: ELISA, CRH central region peptide (NT biotin). As to the method: as §1
Regarding B2, the binding result is given as “no binding (tested: 100 nM)”.
Still for that read-out and setting: the value for B3 was “no binding (tested: 100 nM)”; that for B1 was “no binding (tested: 100 nM)”; that for B6 was “no binding (tested: 100 nM)”.

A further test deals with T8, CRH (Central Region, CT Biotin). In words: ELISA, CRH central region peptide (CT biotin). As to the method:
as §1
For B2, the binding result is given as “no binding (tested: 100 nM)”.
The same measure, in the same setting: the value for B3 was “no binding (tested: 100 nM)”.
As for B1, the binding result is given as “no binding (tested: 100 nM)”.
Same read-out and setting: the same measure for B6: “no binding (tested: 100 nM)”.

The target in a further test is T9, CRH (C-Terminal Region, NT Biotin). In words: ELISA, CRH C-terminal region peptide (NT biotin). As to the method:
as §1
B2: the binding result was “no binding (tested: 100 nM)”.
On the same count and under the same terms, the same measure for B3: “no binding (tested: 100 nM)”.
Same read-out and setting: the value for B1 was “no binding (tested: 100 nM)”; that for B6 was “no binding (tested: 100 nM)”.

In a further test the target is T3, human UCN1 peptide, biotinylated. The test can be described thus: ELISA, hUCN1 (NT biotin) and (CT biotin), mAb at 100 and 10 nM. As to the method: as §2
In the case of B7, the binding result is recorded as “binds”.
Same read-out and setting: the value for B8 was “binds”.
Consider B9, for which the binding result is “binds”.
The same measure, in the same setting: the value for B10 was “binds”.
